The values below come from the DeepSol protein solubility set.

A short description of this series: soluble on expression in E. coli; label from the status in PepcDB or PDB records.
Consider “MAEGGAADLDTQRSDIATLLKTSLRKGDTWYLVDSRWFKQWKKYVGFDSWDKYQMGDQNVYPGPIDNSGLLKDGDAQSLKEHLIDELDYILLPTEGWNKLVSWYTLMEGQEPIARKVVEQGMFVKHCKVEVYLTELKLCENGNMNNVVTRRFSKADTIDTIEKEIRKIFSIPDEKETRLWNKYMSNTFEPLNKPDSTIQDAGLYQGQVLVIEQKNEDGTWPRGPSTPNVKNSNYCLPSYTAYKNYDYSEPGRNNEQPGLCGLSNLGNTCFMNSAIQCLSNTPPLTEYFLNDKYQEELNFDNPLGMRGEIAKSYAELIKQMWSGKFSYVTPRAFKTQVGRFAPQFSGYQQQDCQELLAFLLDGLHEDLNRIRKKPYIQLKDADGRPDKVVAEEAWENHLKRNDSIIVDIFHGLFKSTLVCPECAKISVTFDPFCYLTLPLPMKKERTLEVYLVRMDPLTKPMQYKVVVPKIGNILDLCTALSALSGIPADKMIVTDIYNHRFHRIFAMDENLSSIMERDDIYVFEININRTEDTEHVIIPVCLREKFRHSSYTHHTGSSLFGQPFLMAVPRNNTEDKLYNLLLLRMCRYVKISTETEETEGSLHCCKDQNINGNGPNGIHEEGSPSEMETDEPDDESSQDQELPSENENSQSEDSVGGDNDSENGLCTEDTCKGQLTGHKKRLFTFQFNNLGNTDINYIKDDTRHIRFDDRQLRLDERSFLALDWDPDLKKRYFDENAAEDFEKHESVEYKPPKKPFVKLKDCIELFTTKEKLGAEDPWYCPNCKEHQQATKKLDLWSLPPVLVVHLKRFSYSRYMRDKLDTLVDFPINDLDMSEFLINPNAGPCRYNLIAVSNHYGGMGGGHYTAFAKNKDDGKWYYFDDSSVSTASEDQIVSKAAYVLFYQRQDTFSGTGFFPLDRETKGASAATGIPLESDEDSNDNDNDIENENCMHTN”, for which the “soluble on expression in E. coli” value is given as “soluble”. As for “MGSDKIHHHHHHMKICVLYSGGKDSTYALHWAVFKGFEVVCLITLIPKREDSWMFQYPNVIYTKYQAEAMDFKLITFGTSGEKDKELEDLKKALLQAKNEGADGIVSGALLSDYQRLNISIIAEELGLKTYTPLWRKSQEEYMRWLVKEGFKFIITSASAYGFPFDLVGKEITTEDVEKIIERARRYGFNPAFEGGEAETFVTYAPLFKTQLRVNGKLKRISEYECRYEITDIH”, the “soluble on expression in E. coli” value is given as “not soluble”. The entry for “MGSDKIHHHHHHMTEQATTTDELAFTRPYGEQEKQILTAEAVEFLTELVTHFTPQRNKLLAARIQQQQDIDNGTLPDFISETASIRDADWKIRGIPADLEDRRVEITGPVERKMVINALNANVKVFMADFEDSLAPDWNKVIDGQINLRDAVNGTISYTNEAGKIYQLKPNPAVLICRVRGLHLPEKHVTWRGEAIPGSLFDFALYFFHNYQALLAKGSGPYFYLPKTQSWQEAAWWSEVFSYAEDRFNLPRGTIKATLLIETLPAVFQMDEILHALRDHIVGLNCGRWDYIFSYIKTLKNYPDRVLPDRQAVTMDKPFLNAYSRLLIKTCHKRGAFAMGGMAAFIPSKDEEHNNQVLNKVKADKSLEANNGHDGTWIAHPGLADTAMAVFNDILGSRKNQLEVMREQDAPITADQLLAPCDGERTEEGMRANIRVAVQYIEAWISGNGCVPIYGLMEDAATAEISRTSIWQWIHHQKTLSNGKPVTKALFRQMLGEEMKVIASELGEERFSQGRFDDAARLMEQITTSDELIDFLTLPGYRLLA” is “not soluble”; for “MGSDKIHHHHHHMQPTIDQKKNPAIGNQRVTKRRKTIAQGLIQEGIELEIIQSWLFAIAQMWEVGHIPPILRGISHKSQVEALFRISQIGETIQKVHEKLAGEYYQDWVKSLNRAGLHTPSEIISAITEIQQVVKPEAIDTTKQLLNKLELEIIGMKDGDFFPTPKPLCQRLVQLADIKPNWQILEPSAGSGNIAEYITNTYPNVQLEVVEINYDLRQILELKGFNLVGKNFLEFNPSHLYNACIMNPPFCELVQHIYQAWKLLITGGVLVSVIPESVFFNRKYKTFKNWLLANNSYVEMVDKDAFLSSNNPTNVATRIIKLIKP” it is “not soluble”. Consider “MAHHHHHHMPGPGLLADGWFREENGQWPGQAMSFKVEEVLHDTPTKFQHLSIFETDPKGPWGTVMTLDGCIQLTDFDEFVYHEMLSHTPLCAHPDPVDVLIIGGGDGGVMREVLRHGTVKRCVLVDIDGDVIEASKKYFPQISSGFSDPRADVRVGDGVAFVREAASESFDVVIIDTTDPDGPAAELFGEKFYRDVLRILKPRGICCNQGESVWLNRNLIEGMADFIKNKVGFASVKYAMIYTPTYPCGSIGSLICSKVAGVDVTQPVRPVESMPFAGELKYYDSDVHKAAFVLPRFARHLNQNYS”, for which the “soluble on expression in E. coli” value is “soluble”.
